Source: PMC4490372, “Architecture of TFIIIC and its role in RNA polymerase III pre-initiation complex assembly” (Nature Communications, 2015)
Changes are numbered by the printed parent chain.

Legend:
[1] = biological target: T1, GST-tagged τ131 (123–566) E498K (S. cerevisiae, UniProt P33339 123-566, E498K); assay: pull-down; 15 μg GST-tagged τ131 on Glutathione Sepharose 4B; 300 nM τ138 or Bdp1, or 1 μM Brf1–TBP; 50 mM Tris pH 7.5, 150 mM NaCl, 2 mM DTT, 0.1% Tween20; 4 °C, 4 h; settings: both partners purified
T1 construct: source: E. coli BL21 (DE3) Gold, purified (GST column, S200 SEC)
T1 sequence (looked up): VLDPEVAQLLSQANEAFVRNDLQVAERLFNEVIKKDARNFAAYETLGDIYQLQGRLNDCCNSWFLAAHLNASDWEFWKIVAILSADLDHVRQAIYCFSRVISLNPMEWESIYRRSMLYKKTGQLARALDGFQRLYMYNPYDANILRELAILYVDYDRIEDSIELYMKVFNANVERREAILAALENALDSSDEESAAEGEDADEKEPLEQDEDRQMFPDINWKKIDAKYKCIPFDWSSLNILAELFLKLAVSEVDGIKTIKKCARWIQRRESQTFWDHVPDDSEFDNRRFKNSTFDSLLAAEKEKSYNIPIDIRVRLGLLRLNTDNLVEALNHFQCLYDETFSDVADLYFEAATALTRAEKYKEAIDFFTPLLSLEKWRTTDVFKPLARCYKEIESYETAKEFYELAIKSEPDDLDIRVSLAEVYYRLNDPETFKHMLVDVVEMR

[2] = biological target: T2, GST-tagged τ131 (123–566) E497K (S. cerevisiae, UniProt P33339 123-566, E497K); assay: as above; settings: both partners purified
T2 construct: source: E. coli BL21 (DE3) Gold, purified (GST column, S200 SEC)
T2 sequence (looked up): T1 sequence (looked up) with E375K, K376E

[3] = biological target: T3, GST-tagged τ131 (123–566) E472K (S. cerevisiae, UniProt P33339 123-566, E472K); assay: as above; settings: both partners purified
T3 construct: source: E. coli BL21 (DE3) Gold, purified (GST column, S200 SEC)
T3 sequence (looked up): T1 sequence (looked up) with E350K, K376E

τ131 (123–566) E497K [4] = biological target: T4, τ131 (123–566) E497K (S. cerevisiae, UniProt P33339 123-566, E497K); assay: ITC
T4 sequence: T1 sequence (looked up) with E375K, K376E

τ131 (123–566) E498K [5] = biological target: T5, τ131 (123–566) E498K (S. cerevisiae, UniProt P33339 123-566, E498K); assay: ITC
T5 sequence: T1 sequence (looked up)

τ131 (123–566) E472K [6] = biological target: T6, τ131 (123–566) E472K (S. cerevisiae, UniProt P33339 123-566, E472K); assay: ITC
T6 sequence: T1 sequence (looked up) with E350K, K376E

[7] = biological target: T7, τ131 (123–566), TPR array, wild type (S. cerevisiae, UniProt P33339 123-566); assay: ITC; MicroCal ITC200; 15 μM τ138 in the cell, 150 μM τ131 in the syringe; 20 mM Tris pH 7.5, 150 mM NaCl, 2 mM β-mercaptoethanol; 25 °C; settings: both partners purified
T7 construct: also called τ131 TPR array; source: E. coli BL21 Star (DE3) pRARE, purified (Ni-NTA, TEV cleavage, S200 SEC); not shown: His6, N-terminal, cleaved
T7 sequence (looked up): T1 sequence (looked up) with K376E

τ131 (123–566) E472K [8] = biological target: T8, τ131 (123–566) E472K (S. cerevisiae, UniProt P33339 123-566, E472K); assay: as above; settings: both partners purified
T8 construct: source: E. coli, purified by the same method as the wild type; not shown: His6, N-terminal, cleaved
T8 sequence (looked up): T1 sequence (looked up) with E350K, K376E

τ131 (123–566) E497K [9] = biological target: T9, τ131 (123–566) E497K (S. cerevisiae, UniProt P33339 123-566, E497K); assay: as above; settings: both partners purified
T9 construct: source: E. coli, purified by the same method as the wild type; not shown: His6, N-terminal, cleaved
T9 sequence (looked up): T1 sequence (looked up) with E375K, K376E

τ131 (123–566) E498K [10] = biological target: T10, τ131 (123–566) E498K (S. cerevisiae, UniProt P33339 123-566, E498K); assay: as above; settings: both partners purified
T10 construct: source: E. coli, purified by the same method as the wild type; not shown: His6, N-terminal, cleaved
T10 sequence (looked up): T1 sequence (looked up)

τ131 (123–566) E472K [11] = biological target: T8, τ131 (123–566) E472K; assay: pull-down; 15 μg GST-τ138 (641–693) on Glutathione Sepharose 4B; 900 nM wild-type or mutant τ131; 50 mM Tris pH 7.5, 150 mM NaCl, 2 mM DTT, 0.1% Tween20; 4 °C, 4 h; settings: both partners purified
τ131 (123–566) E497K [12] = biological target: T9, τ131 (123–566) E497K; assay: as above; settings: both partners purified
τ131 (123–566) E498K [13] = biological target: T10, τ131 (123–566) E498K; assay: as above; settings: both partners purified
[14] = biological target: T11, τ95 (Tfc1), τA subunit of endogenous S. cerevisiae TFIIIC (S. cerevisiae, UniProt P32367 1-649); assay: cross-linking; XL-MS: purified endogenous TFIIIC (30 μg, 1 μg/μl) cross-linked with H12/D12 DSS to 2 mM, 40 min at 37 °C; ld-score >25; settings: both partners purified
T11 construct: τ95 (Tfc1), subunit of S. cerevisiae TFIIIC, endogenous subunit in the purified complex; source: endogenous, purified from S. cerevisiae strain SC2342 as part of TFIIIC (TAP tag on τ60)
T11 sequence (looked up): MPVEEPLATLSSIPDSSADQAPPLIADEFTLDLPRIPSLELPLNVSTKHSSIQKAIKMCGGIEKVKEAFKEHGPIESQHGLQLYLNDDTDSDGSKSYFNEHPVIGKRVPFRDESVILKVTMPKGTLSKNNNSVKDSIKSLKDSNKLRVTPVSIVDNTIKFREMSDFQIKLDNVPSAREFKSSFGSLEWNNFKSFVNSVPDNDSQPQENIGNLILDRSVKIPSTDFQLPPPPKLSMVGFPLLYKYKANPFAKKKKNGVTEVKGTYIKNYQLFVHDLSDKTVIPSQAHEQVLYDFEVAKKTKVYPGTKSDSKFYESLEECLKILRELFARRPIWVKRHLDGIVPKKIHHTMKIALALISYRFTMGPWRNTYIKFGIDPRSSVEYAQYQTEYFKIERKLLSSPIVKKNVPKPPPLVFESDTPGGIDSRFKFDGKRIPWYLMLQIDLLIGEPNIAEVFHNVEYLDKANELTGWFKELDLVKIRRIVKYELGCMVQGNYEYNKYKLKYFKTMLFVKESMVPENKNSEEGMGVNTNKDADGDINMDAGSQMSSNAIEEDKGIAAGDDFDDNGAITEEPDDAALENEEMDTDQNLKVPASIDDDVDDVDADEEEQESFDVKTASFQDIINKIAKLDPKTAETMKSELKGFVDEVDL

B1: τ138 (546–693), eWH-τIR (domain or fragment, S. cerevisiae, UniProt P34111 546-693, looked up)
chain: SARSLRSLQRQRAILKVMNTIGGVAYLREQFYESVSKYMGSTTTLDKKTVRGDVDLMVESEKLGARTEPVSGRKIIFLPTVGEDAIQRYILKEKDSKKATFTDVIHDTEIYFFDQTEKNRFHRGKKSVERIRKFQNRQKNAKIKASDD
notes: the cloning of this construct is not described; also called τ138 (eWH-τIR); central region of τ138; source: purified; expression of this construct not described
binding result [1]: binds
binding result [2]: binds
binding result [3]: binds
Kd (τ131 (123–566) E497K [4]): 99 nM
Kd (τ131 (123–566) E498K [5]): 971 nM
Kd (τ131 (123–566) E472K [6]): 415 nM
Kd [7]: ~100 nM
binding result (τ131 (123–566) E472K [8]): binds
binding result (τ131 (123–566) E497K [9]): binds
binding result (τ131 (123–566) E498K [10]): binds

B2: GST-τ138 (641–693) (domain or fragment, S. cerevisiae, UniProt P34111 641-693, looked up)
chain: SKKATFTDVIHDTEIYFFDQTEKNRFHRGKKSVERIRKFQNRQKNAKIKASDD
notes: also called GST-tagged τ138; source: E. coli BL21 (DE3) Gold, purified (GST column, S200 SEC)
binding result (τ131 (123–566) E472K [11]): binds
binding result (τ131 (123–566) E497K [12]): binds
binding result (τ131 (123–566) E498K [13]): binds

B3: τ55 (Tfc7), τA subunit of endogenous S. cerevisiae TFIIIC (natural protein, UniProt Q12415 1-435, looked up)
chain: MVVNTIYIARHGYRSNWLPEGPYPDPLTGIDSDVPLAEHGVQQAKELAHYLLSLDNQPEAAFASPFYRCLETVQPIAKLLEIPVYLERGIGEWYRPDRKPVIPVPAGYEILSKFFPGVISQEWDSTLTPNEKGETEQEMYMRFKKFWPLFIERVEKEYPNVECILLVTHAASKIALGMSLLGYDNPRMSLNENGDKIRSGSCSLDKYEILKKSYDTIDETDDQTSFTYIPFSDRKWVLTMNGNTEFLSSGEEMNWNFDCVAEAGSDADIKKRQMTKKTSSPIPEADDQTEVETVYISVDIPSGNYKERTEIAKSAILQYSGLETDAPLFRIGNRLYEGSWERLVGTELAFPNAAHVHKKTAGLLSPTEENETTNAGQSKGSSTANDPNIQIQEEDVGLPDSTNTSRDHTGDKEEVQSEKIYRIKERIVLSNVRPM
notes: τ55 (Tfc7), subunit of S. cerevisiae TFIIIC, endogenous subunit in the purified complex; source: endogenous, purified from S. cerevisiae strain SC2342 as part of TFIIIC (TAP tag on τ60)
binding result [14]: binds
